Experimental data reported in US20050124036.

system: plasminogen according to the present invention (20 mg/ml, Example 8)

Substance	plasmin activity after activation
Trypsin	11 kU/mg
Thrombin	83.0 U/mg
Elastase	0.63 U/mg
Protease from S. griseus	613.3 U/mg
Protease VIII	9 U/mg
Endoproteinase Glu-C	0.6 U/mg
Protease XVIII	0.7 U/mg
Proteinase A	0.02 U/mg
Protease XIII	0.01 U/mg
Ficin	0.01 U/mg
Endoproteinase Asp-N	4.3 U/mg
